Data published in the RNAGym collection of RNA variant scans (doi:10.7554/elife.80360).

B1: Twister Ribozyme (parent)
chain: AACACUGCCAAUGCCGGUCCCAAGCCCGGAUAAAAGUGGAGGGGGCGG

Variants of: B1
Test: self-cleavage, relative activity (ratio to wild type); higher = more cleavage; co-transcriptional

Variant	self-cleavage
U31G C46G	0.852
C9G G28A	0.512
U12G G41A	0.658
G39A A40G	0.145
U12C A35U	0.91
G45U C46G	0.52
G13U A34G	0.211
C19U U31C	0.971
C3A A40C	0.0582
C27G U37C	0.102
A10G C21U	0.162
A2U C15A	0.194
C14G G41A	0.103
C9A G43C	0.0978
U6G G41U	0.129
C25U A34G	0.487
C5A G38C	0.341
C5A G38U	0.0941
A40C G41A	0.115
A30C G36U	0.0939
A32U A35G	0.746
U18G G47U	0.0478
U31A G44C	0.711
A11G A34U	0.913

Variant	self-cleavage
C15U U31A	0.785
C5U G45C	0.239
C14A C21A	0.128
C26U G28A	0.106
G28U G44U	0.879
C27A G47A	0.238
C21A A35G	0.0738
C14U A30G	1.02
C8A G17U	0.0971
G16U G48U	0.843
G7A G13U	0.0584
G17U G36U	0.0806
G13U G42U	0.114
U18G G38U	0.0721
C21G G44A	0.0938
A4G C14G	0.276
G16C G47C	0.268
C14U G38U	0.904
A34G G41C	0.12
A10C C26G	0.175
G45C G48A	0.628
A1U C15G	0.0744
G36A G42U	0.128
C3G C25A	0.0782

Variant	self-cleavage
C9G A10U	0.859
A30G U37C	0.486
A10U G48U	0.933
A4C G45A	0.145
C26G G41C	0.0955
A40G G44U	0.156
G29A A33G	0.845
C8A G41C	0.124
A33G G45U	0.782
C14G A33C	0.176
C5A G13U	0.0864
C5G A10C	0.768
G7U U18A	0.0251
U18G G39C	0.0419
C21G C25A	0.0791
C8A C9U	0.0937
G28C A34C	0.154
A2C A22U	0.0564
C9U A23U	0.0746
A23U G45C	0.141
A2G G48C	0.389
C3G C9G	0.139
G13A G42C	0.34
A22U A40G	0.734

Variant	self-cleavage
A1C U6C	0.147
G7C G42U	0.0563
A4G C8G	0.289
U37G G42U	0.163
G13U A33U	0.403
A30C G45U	0.573
C20U G42A	0.935
A1G C25G	0.205
U31G G43U	0.467
C3U A23U	0.194
G17U G28C	0.0949
C8G C46G	0.344
C8G C46A	0.231
C9G A33U	0.689
A4G C21G	0.0683
G24C C26U	0.126
A2G C8A	0.153
U12A A23G	0.768
A4C G16C	0.0536
G16A A35G	0.555
C25G A30C	0.129
C8U C25U	0.195
C8U C25G	0.1
A35C U37A	0.702

Variant	self-cleavage
G7C C8A	0.0479
A23G G39C	0.102
A2C G41U	0.0822
C15G G36C	0.0921
A22U A33G	0.888
A2C C9U	0.0433
C3U C21A	0.0567
A23G A34G	0.112
C5A G39C	0.149
G28A G38A	0.821
A4C U37G	0.623
G17U G39U	0.108
A11C G45A	0.938
A23U G38U	0.236
C25A G47A	0.102
C14G C15A	0.644
G28A U37C	0.391
C9U G17C	0.0426
C14U G28U	1.08
A30C C46G	0.647
A30C C46U	0.798
C25U A32U	0.799
C5A C27G	0.0807
A11C U18A	0.159

Variant	self-cleavage
A1C C14A	0.222
A22G G28C	0.215
A2C C46A	0.0436
U18G G41A	0.0588
U12A C46U	0.977
A32C G44A	0.881
G17A A33U	0.614
A10C G48A	0.822
A11C G17A	0.134
A11C G17U	0.14
G13A A33C	0.825
G28U G47A	0.374
A10U A11U	1.14
G28U G39U	0.177
G16C A34U	0.207
A2G G36A	0.118
C27G G43U	0.0926
A34G G48C	0.791
U6G C15A	0.301
A2G G7U	0.0648
C14A G47U	0.66
C14A G47A	0.749
U6C C15G	0.1
A4U C46G	0.105

Variant	self-cleavage
A1G G41U	0.228
C3A G28A	0.183
C5G C25A	0.0988
G38U C46G	0.818
A30G U31G	1.02
U12C C20U	0.695
C26U	0.601
U31C A40G	0.0669
U6A G45C	0.254
A10C G36A	0.794
C3A C5G	0.265
C26A U31C	0.7
A10U G36C	0.711
G7U C46U	0.103
C3U G43A	0.0963
G28U A33G	0.979
A22U G42U	0.191
C15A A22G	0.141
C20A C21G	0.0829
A30G G44C	1.02
C20G G36A	0.0839
G42U G47A	0.242
C9A G47A	0.336
G17C C21G	0.0972

Variant	self-cleavage
C9U G16A	0.405
C19G G42A	0.0847
G29U G48U	0.867
G7C C46A	0.0371
C9G G16U	0.346
A2G C26A	0.134
A1U G24A	0.062
C25U A40U	0.0985
G13C G41C	0.104
G13C G41A	0.0914
A10U G28A	0.885
A2U C3U	0.221
A1G G29A	0.437
C3A A10C	0.308
U37A G38U	0.38
C20A G47U	0.103
C26A G47C	0.2
A23C G39C	0.103
C9A C20U	0.15
A1U U37A	0.0677
C21U A34G	0.0608
C8U A40G	0.172
C20U C27U	0.708
C9U U18G	0.059

Variant	self-cleavage
C5G G41U	0.154
A11G U31G	1.1
C3U C9U	0.253
C19U G29A	0.806
G7C U37G	0.062
C9G U37A	0.208
C8U A11U	0.973
G16A A22G	0.155
G29A A32U	0.949
A4U C8G	0.13
C14A	0.923
C26A G45A	0.258
A1U U31A	0.0544
A1G A33G	0.499
C19G A22G	0.0844
G16U G42C	0.25
C9A A11C	1.03
A2C C26G	0.0867
U12G G39C	0.137
G28A C46A	0.682
G7A G36C	0.113
G24U A40C	0.099
G16A G17A	0.281
C19A A30G	0.444

Variant	self-cleavage
A11G C20G	0.197
C15A U37G	0.0756
C19U G44U	0.86
A30U A32C	0.945
U31A A33G	0.82
G13U	0.801
C14U C25A	0.27
A4C G43U	0.103
U18C G48A	0.368
C21G G38U	0.0824
C21G G38C	0.0966
U18A C21G	0.395
A23G C27G	0.0997
C5G A35C	0.742
C14G U31G	0.158
A32G U37C	0.844
U6G C27G	0.0245
A1U G29A	0.0545
A2U A33C	0.457
A23G G45A	0.332
G28C U37C	0.267
A4G	1
C14U G45C	0.713
A1G C9G	0.315

Variant	self-cleavage
G16C G48C	0.709
C3U A30U	0.397
U31G G44A	0.825
G43C G47C	0.159
G17A A32U	0.476
U6C U18A	0.0773
C15U A22C	0.932
A1U U12G	0.0921
C25G	0.458
A10U G24A	0.0831
C3U C27G	0.0437
G39C G44C	0.167
G29U A40U	0.145
C9U C14A	0.56
G7C G17C	0.0528
C27A U31C	0.495
C20U U31G	0.873
C15G G24C	0.0723
A2C G48C	0.0956
C15A C27A	0.18
U12C G45A	0.788
C14G A40U	0.0589
G16U C46U	1.02
U12A G17C	0.114

Variant	self-cleavage
C21A G29U	0.134
A10G A23U	0.92
U12A C20G	0.16
U12A C20A	0.181
U18A A23G	0.0959
A23G G42U	0.121
G17U C26A	0.719
G7U C9A	0.0711
U12A U37A	0.918
G7C G43U	0.0777
U12C C21A	0.124
A4U G28C	0.0611
G13C G47C	0.179
U12G C25A	0.256
U12C C46A	0.903
U12A G13C	0.811
G36C U37C	0.123
C3A G45C	0.0823
C26A G42A	0.132
C19G A23C	0.0786
C20G G42U	0.386
C20G G42C	0.791
C26A C27U	0.0741
A23C G43U	0.109

Variant	self-cleavage
G16U G36C	0.156
C21G A30U	0.0816
C21A G36C	0.109
C5U G29C	0.454
C15U U37G	0.568
G28U U37G	0.168
U18A G48U	0.419
C3U G45U	0.338
A1C G17C	0.145
C20G G29A	0.189
G17A C46A	0.322
C3A C15G	0.0656
G7C A22U	0.0623
A30G A33C	1.06
C8G C15G	0.062
C21U G29C	0.0653
C5U U31G	0.65
C27A U37A	0.138
C14G U37C	0.0984
C14G U37A	0.0885
C26G A35C	0.319
U12C U18G	0.0285
G16U C27U	1.16
C20U G44U	0.893

Variant	self-cleavage
C9U A11G	0.597
C3G G24A	0.0502
G29A G36C	0.246
C27U G36A	0.583
G39C G45C	0.105
C26U G39A	0.118
G7U A34U	0.0892
C27G	0.0872
A2G C21U	0.0523
C15U C20A	0.176
A2U U37A	0.202
A11G C21A	0.107
C14A C27G	0.0739
A30C A35U	0.912
U6A C19A	0.0793
U6A C19U	0.539
G16C G29A	0.222
U31C C46A	0.733
A4G U6A	0.866
C25A C26U	0.0948
A2G A35U	0.211
A33G C46U	0.851
